Where no end group is shown, it is not given here.
Target: T1, recombinant human soluble TNF receptor inhibitor/Fc chimera (rHusTNFRI) (human, UniProt P19438 30-211)
T1 construct: Bought from Prospec-Tany TechnoGene; Only the soluble part stood in the assay; also called TNF-R1; immobilised rHusTNFRI; not shown: Fc part of human IgG1; 6x histidine tag on the Fc part
T1 sequence: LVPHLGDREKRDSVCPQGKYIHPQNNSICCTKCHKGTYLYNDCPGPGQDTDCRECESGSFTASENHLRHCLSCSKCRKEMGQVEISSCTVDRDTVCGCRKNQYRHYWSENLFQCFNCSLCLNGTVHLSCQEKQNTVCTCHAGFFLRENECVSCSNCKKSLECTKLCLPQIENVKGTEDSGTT
Assay: solid-phase competition ELISA: unlabelled TNF70-80 against 10 µM biotinylated TNF70-80 on immobilised rHusTNFRI

IC50: ~21 µM
Kd: 90 µM
B1: TNF70-80 (Pro-Ser-Thr-His-Val-Leu-Ile-Thr-His-Thr-Ile-OH) (peptide)
peptide: PSTHVLITHTI-OH
notes: 4; also called Peptide A; TNF mimetic peptide
